The experiment concerns the target IPO11 (Importin-11) (UniProt Q9UI26). Nature of the experiment: co-immunoprecipitation, western blot. Conditions: reference: wild-type RPRM; sites S98. (In western blotting, separated proteins are transferred to a membrane and probed.)

As for “RPRM (Reprimo) (from UniProt Q9NS64) RPRM S98A”, the “binding against the reference” value is reported as “stronger”.

(Values after publication PMC9519624.)
